From PMC11389852, “Developing deprotectase biocatalysts for synthesis†” (Faraday Discussions, 2024)

Target: the molecule itself
Test: SEC; size exclusion chromatography of recombinant Cbz-ase (Fig. S32); conditions not told in the main text

B1: Sphingomonas paucimobilis Cbz-ase (amidohydrolase), recombinant (enzyme)
chain: MVQPTPTPQSELPGLIARDMEGLMTLYRDLHANPELSLQEVNTAAKLAKRLKAMKFDVTEKVGGTGVVAVMKNGSGPVLLIRADMDGLPVVEQTGLDFASKVRTKTPEGVETGVMHACGHDTHMTAFIETAKLLSSSKDKWKGTLVMILQPAEEVGKGARDMLEDGLYTRFPRPTHAIAFHDAANLQAGVVGYTPGYALANVDSVDIVVKGLGGHGAYPQTTRDPIVLGSRIVTSLQTLVSREQDPQDPAVVTVGSFQAGAKHNIIPDQALLLLTVRSYSDETRAKLIKGIERIARGEAIAAGVPDDKMPVVSVKDEFTPSTYNPPEFAEQMGALLKGHFAEGRVVKTPAVMGGEDFGRFYRADKSINSFIFWVGGVPADKMAAAQAGQITLPSLHSPFWAPEADKVIATASEAMTVLAMDILKKD
- stoichiometry N: 4
